Key:
human IL-12 = target: T1, human IL-12 (human, UniProt P29460 23-328; P29459 23-219); assay: SPR 37 C, antibody captured by anti-human Fc, cytokine injected
T1 construct: Heterodimer p40/p35; also called IL-12 Human
T1 sequence 1: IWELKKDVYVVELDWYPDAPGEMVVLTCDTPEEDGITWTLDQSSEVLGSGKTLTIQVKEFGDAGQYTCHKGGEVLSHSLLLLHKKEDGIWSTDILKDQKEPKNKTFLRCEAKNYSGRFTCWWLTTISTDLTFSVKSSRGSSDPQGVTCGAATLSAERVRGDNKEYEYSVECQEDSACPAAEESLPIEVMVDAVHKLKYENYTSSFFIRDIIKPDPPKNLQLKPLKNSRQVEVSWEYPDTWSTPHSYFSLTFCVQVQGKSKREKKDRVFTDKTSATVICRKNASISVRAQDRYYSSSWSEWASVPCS
T1 sequence 2: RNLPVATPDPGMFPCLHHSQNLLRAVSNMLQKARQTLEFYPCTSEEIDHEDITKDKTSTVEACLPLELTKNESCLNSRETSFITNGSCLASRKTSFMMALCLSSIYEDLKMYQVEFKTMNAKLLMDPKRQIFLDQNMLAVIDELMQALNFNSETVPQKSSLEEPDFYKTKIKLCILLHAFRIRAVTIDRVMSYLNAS
Experimental: (§1) For these analyses, kinetic assays were conducted at 37° C. using a collection rate of 10 Hz on a BIAcore™ T200 instrument (GE Healthcare). An anti-human IgG antibody (anti-human Fc, catalog number 10-005-098, Jackson ImmunoResearch) was amine coupled to all four flow cells of a carboxymethylated dextran coated sensor chip (GE Healthcare) using the manufacturer's recommended protocol.

cynomolgus monkey IL-12 = target: T2, cynomolgus monkey IL-12 (cynomolgus monkey); assay: as above
T2 construct: Heterodimer p40/p35; Whole entries as named; also called IL-12 Cyno
T2 chain 1: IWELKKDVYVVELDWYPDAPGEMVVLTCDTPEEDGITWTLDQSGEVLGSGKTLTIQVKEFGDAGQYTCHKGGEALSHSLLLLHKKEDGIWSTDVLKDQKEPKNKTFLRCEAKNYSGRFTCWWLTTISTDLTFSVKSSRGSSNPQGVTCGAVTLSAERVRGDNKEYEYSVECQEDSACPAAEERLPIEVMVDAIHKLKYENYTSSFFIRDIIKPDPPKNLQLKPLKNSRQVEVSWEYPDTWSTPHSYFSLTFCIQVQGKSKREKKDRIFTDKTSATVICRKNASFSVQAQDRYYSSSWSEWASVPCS
T2 chain 2: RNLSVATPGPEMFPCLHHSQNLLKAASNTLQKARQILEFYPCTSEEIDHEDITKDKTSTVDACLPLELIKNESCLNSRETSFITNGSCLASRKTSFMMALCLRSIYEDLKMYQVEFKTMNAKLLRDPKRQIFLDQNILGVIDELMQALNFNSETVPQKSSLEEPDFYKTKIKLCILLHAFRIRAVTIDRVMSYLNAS
Experimental: as §1

human IL-23 = target: T3, human IL-23 (human, UniProt P29460 23-328; Q9NPF7 20-189); assay: as above
T3 construct: Heterodimer p40/p19; Whole entries as named; also called IL-23 Human; recombinant human IL-23
T3 sequence 1: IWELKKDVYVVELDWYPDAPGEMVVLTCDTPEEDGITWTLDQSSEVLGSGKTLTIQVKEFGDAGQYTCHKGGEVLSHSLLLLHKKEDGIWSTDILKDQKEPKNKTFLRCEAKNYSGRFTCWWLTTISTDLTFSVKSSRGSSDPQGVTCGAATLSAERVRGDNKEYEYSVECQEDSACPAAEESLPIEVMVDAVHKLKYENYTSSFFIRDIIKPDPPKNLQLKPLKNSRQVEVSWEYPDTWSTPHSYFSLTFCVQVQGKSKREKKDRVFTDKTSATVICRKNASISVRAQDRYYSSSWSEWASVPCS
T3 sequence 2: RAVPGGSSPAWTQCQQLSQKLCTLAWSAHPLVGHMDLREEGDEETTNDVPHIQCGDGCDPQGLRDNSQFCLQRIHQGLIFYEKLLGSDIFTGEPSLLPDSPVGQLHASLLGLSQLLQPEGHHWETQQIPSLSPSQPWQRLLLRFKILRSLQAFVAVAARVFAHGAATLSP
Experimental: as §1

cynomolgus monkey IL-23 = target: T4, cynomolgus monkey IL-23 (cynomolgus monkey, limits assumed); assay: as above
T4 construct: Heterodimer p40/p19; Whole entries as named; also called IL-23 Cyno
T4 chain 1: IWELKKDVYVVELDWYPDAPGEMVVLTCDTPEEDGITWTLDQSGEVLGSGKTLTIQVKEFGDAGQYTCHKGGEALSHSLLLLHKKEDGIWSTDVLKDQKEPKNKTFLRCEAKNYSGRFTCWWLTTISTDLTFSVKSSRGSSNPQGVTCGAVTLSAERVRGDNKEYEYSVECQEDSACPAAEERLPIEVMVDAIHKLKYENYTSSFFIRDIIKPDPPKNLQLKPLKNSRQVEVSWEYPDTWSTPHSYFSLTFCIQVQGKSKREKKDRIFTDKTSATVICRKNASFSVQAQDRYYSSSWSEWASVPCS
T4 chain 2: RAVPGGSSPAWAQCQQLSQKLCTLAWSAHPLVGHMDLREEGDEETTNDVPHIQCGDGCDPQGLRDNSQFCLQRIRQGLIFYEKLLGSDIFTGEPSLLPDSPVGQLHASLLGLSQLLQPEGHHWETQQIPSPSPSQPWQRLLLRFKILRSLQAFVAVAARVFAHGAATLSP
Experimental: as §1

recombinant human TL1A [1] = target: T5, recombinant human TL1A (human, UniProt O95150 71-251); assay: cell-based or functional assay
T5 chain: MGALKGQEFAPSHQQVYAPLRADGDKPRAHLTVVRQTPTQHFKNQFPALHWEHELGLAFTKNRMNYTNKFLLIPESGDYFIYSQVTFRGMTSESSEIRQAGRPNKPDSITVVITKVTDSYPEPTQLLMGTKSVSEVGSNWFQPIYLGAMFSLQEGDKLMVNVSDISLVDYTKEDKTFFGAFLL

recombinant human TL1A [2] = target: T5, recombinant human TL1A; assay: SPR, recombinant human TL1A
recombinant human TL1A [3] = target: T5, recombinant human TL1A; assay: SPR 37 C, biotinylated TL1A captured, antibody injected
Experimental: (§2) For these analyses, kinetic assays were conducted at 37° C. using a collection rate of 10 Hz on a Biacore™ T200 instrument (GE Healthcare). […] The association phase was 90 seconds, and the dissociation phases were 1600 seconds over human, cynomolgus monkey and rabbit TL1A and 180 seconds for mouse and rat TL1A.

[4] = target: T6, recombinant cynomolgus monkey TL1A (cynomolgus monkey, UniProt O95150 72-251 (human entry)); assay: as above
T6 construct: biotinylated with Sulfo-NHS-biotin and captured for SPR
T6 chain: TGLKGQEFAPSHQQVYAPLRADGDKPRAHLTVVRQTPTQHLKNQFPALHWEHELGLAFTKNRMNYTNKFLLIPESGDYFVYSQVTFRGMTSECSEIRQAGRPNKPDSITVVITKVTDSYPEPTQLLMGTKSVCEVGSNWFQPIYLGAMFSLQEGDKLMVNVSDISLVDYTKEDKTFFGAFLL
Experimental: as §2

recombinant mouse TL1A = target: T7, recombinant mouse TL1A (mouse, UniProt Q5UBV8 75-252); assay: as above
T7 construct: biotinylated with Sulfo-NHS-biotin and captured for SPR
T7 chain: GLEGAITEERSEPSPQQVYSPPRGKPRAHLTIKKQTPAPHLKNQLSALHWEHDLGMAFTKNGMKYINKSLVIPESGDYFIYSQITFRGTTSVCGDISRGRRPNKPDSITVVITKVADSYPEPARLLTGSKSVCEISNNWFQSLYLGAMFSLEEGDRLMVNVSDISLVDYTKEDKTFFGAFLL
Experimental: as §2

recombinant rat TL1A [5] = target: T8, recombinant rat TL1A (rat, UniProt Q8K3Y7 76-252); assay: as above
T8 construct: biotinylated with Sulfo-NHS-biotin and captured for SPR
T8 sequence: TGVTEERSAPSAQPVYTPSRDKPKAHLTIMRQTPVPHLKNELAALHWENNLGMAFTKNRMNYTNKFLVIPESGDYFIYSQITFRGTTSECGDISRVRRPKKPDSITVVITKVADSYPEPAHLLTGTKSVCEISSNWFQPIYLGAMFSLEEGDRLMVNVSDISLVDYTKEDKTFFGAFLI
Experimental: as §2

recombinant rat TL1A [6] = target: T8, recombinant rat TL1A; assay: SPR 37 C, biotinylated TL1A captured, antibody injected; approximate KD
Experimental: as §2

bovine serum albumin = target: T9, bovine serum albumin (bovine, UniProt P02769 25-607); assay: direct binding ELISA on plate-coated BSA (1 ug/mL), anti-human IgG-Fc HRP, OD450
T9 construct: also called BSA
Experimental: (§3) For the direct binding ELISA method to HSA or BSA, 96-well high binding plates (Corning, product number 3590) were coated with 1 μg/mL recombinant HSA or BSA in 100 μL/well in PBS overnight at 4° C. Plates were then blocked in PBS+0.02% casein solution and washed with PBS+0.05% Tween-20 following standard ELISA protocol. […] Plates were washed with PBS+0.05% Tween-20 following standard ELISA protocol, and goat anti-human IgG-Fc HRP conjugated secondary antibody (Pierce, #31413) diluted to 1:10,000 in assay buffer was added to plates and incubated for 1 hour at room temperature. Next, the plates were washed with PBS+0.05% Tween-20 following standard ELISA protocol, and then TMB substrate (BioFX Laboratories, catalog number TMBW-0100-01) was added to plates.
(§4) Reactions were stopped after approximately 5 minutes by adding 0.18 M ortho-phosphoric acid to each well and absorbance was read at 450 nm. […] For this method, samples diluted to 0.3 mg/mL were dispensed into the sample tray of a MicroCal VP-Capillary DSC with Autosampler (Malvern Instruments, Inc.), equilibrated for 5 minutes at 10° C. and then scanned up to 110° C. at a rate of 100° C. per/hour. A filtering period of 16 seconds was selected. Raw data was baseline corrected and the protein concentration was normalized. Origin Software 7.0 (Origin Lab Corporation, Northampton, MA) was used to fit the data to an MN2-State Model with an appropriate number of transitions.

human serum albumin = target: T10, human serum albumin (human, UniProt P02768 25-609); assay: direct binding ELISA on plate-coated HSA (1 ug/mL), anti-human IgG-Fc HRP, OD450
T10 construct: also called HSA
Experimental: as §3, §4

recombinant human TL1A [7] = target: T11, recombinant human TL1A (human, UniProt O95150 71-251); assay: SPR, antibody injected over captured biotinylated human TL1A
T11 construct: homotrimer; biotinylated for SPR capture; the ELISA paragraphs say only 'recombinant TL1A'; also called TNFSF15
T11 chain: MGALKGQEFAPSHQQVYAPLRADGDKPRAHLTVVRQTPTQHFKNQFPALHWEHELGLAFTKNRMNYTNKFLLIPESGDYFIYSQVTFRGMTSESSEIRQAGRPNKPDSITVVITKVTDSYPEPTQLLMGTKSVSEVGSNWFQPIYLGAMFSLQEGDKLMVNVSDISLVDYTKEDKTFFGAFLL
Experimental: An SPR assay was also used to determine whether the [xTL1A] bivalent antibody variants could bind recombinant human TL1A. […] A high concentration (1 μM) of [xTL1A] variant antibodies were injected in assay buffer (HBS-EP+, pH 7.4, Cytiva, product number BR100669).

T9 sequence (P02769 25-607 limits assumed): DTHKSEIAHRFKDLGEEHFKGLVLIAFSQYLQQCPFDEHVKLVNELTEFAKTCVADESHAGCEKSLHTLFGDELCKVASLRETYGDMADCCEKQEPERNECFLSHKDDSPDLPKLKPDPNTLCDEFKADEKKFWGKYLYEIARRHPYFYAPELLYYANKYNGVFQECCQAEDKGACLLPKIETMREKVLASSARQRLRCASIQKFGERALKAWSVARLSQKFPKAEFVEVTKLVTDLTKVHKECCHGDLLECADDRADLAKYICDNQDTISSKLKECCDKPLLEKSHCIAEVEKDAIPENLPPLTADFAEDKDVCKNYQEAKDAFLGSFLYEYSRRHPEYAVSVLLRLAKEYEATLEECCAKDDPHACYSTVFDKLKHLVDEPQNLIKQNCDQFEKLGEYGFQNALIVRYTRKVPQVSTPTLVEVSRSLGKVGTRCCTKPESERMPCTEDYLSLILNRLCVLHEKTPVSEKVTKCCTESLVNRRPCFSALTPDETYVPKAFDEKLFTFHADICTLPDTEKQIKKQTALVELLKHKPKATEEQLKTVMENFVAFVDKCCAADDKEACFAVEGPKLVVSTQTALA

B1: p40-0003 (antibody, human IgG1, kappa, V domains shown)
VH: EVQLVQSGAEVKKPGESLKISCKGSGYSFTTYWLGWVRQMPGKGLDWIGIMSPVDSDIRYSPSFQGQVTMSVDKSITTAYLQWNSLKASDTAMYYCARRRPGQGYFDFWGQGTLVTVSS
VL: DIQMTQSPSSLSASVGDRVTITCRASQGISSWLAWYQQKPEKAPKSLIYAASSLQSGVPSRFSGSGSGTDFTLTISSLQPEDFATYYCQQYNIYPYTFGQGTKLEIKR
notes: human IgG1 effector-function-minimized/kappa; also called anti-IL12p40 p40-0003 antibody; C230 (ustekinumab) variable regions
Kd (human IL-12): 0.156 nM
Kd (cynomolgus monkey IL-12): 0.368 nM
Kd (human IL-23): 0.16 nM
Kd (cynomolgus monkey IL-23): 0.317 nM

B2: TL1A-0372 (bispecific antibody, human IgG1, kappa)
heavy 1: QVQLVQSGAEVKKPGASVKVSCKASGYDYTYYGISWVRQAPGQGLEWMGWISTYNTGTHYAPSLQGRVTMTTDTSTSTAYMELRSLRSDDTAVYYCARESYYGSGAFRGGMDVWGQGTTVTVSSASTKGPSVFPLAPSSKSTSGGTAALGCLVKDYFPEPVTVSWNSGALTSGVHTFPAVLQSSGLYSLSSVVTVPSSSLGTQTYICNVNHKPSNTKVDKKVEPKSCDKTHTCPPCPAPEAAGAPSVFLFPPKPKDTLMISRTPEVTCVVVDVSHEDPEVKFNWYVDGVEVHNAKTKPREEQYNSTYRVVSVLTVLHQDWLNGKEYKCKVSNKALPAPIEKTISKAKGQPREPQVCTLPPSREEMTKNQVSLWCLVKGFYPSDIAVEWESNGQPENNYKTTPPVLDSDGSFFLYSKLTVDKSRWQQGNVFSCSVLHEALHSHYTQKSLSLSPGK
heavy 2: not shown
light: not shown
notes: monovalent bispecific (null-arm) antibody, IgG1 KiH, LS
NFκB Bioassay IC50 (recombinant human TL1A [1]): 1.47 nM
Kd (recombinant human TL1A [2]): 0.286 nM
koff (recombinant human TL1A [2]): 4.98e-05 s⁻¹
kon (recombinant human TL1A [2]): 174000 M⁻¹ s⁻¹
Kd (recombinant human TL1A [3]): 0.54 nM
koff (recombinant human TL1A [3]): 6.21e-05 s⁻¹
kon (recombinant human TL1A [3]): 114000 M⁻¹ s⁻¹
Kd [4]: 1.27 nM
koff [4]: 0.000121 s⁻¹
kon [4]: 96400 M⁻¹ s⁻¹
Kd (recombinant mouse TL1A): 295 nM
koff (recombinant mouse TL1A): 0.00708 s⁻¹
kon (recombinant mouse TL1A): 24000 M⁻¹ s⁻¹
koff (recombinant rat TL1A [5]): 0.0483 s⁻¹
kon (recombinant rat TL1A [5]): 32200 M⁻¹ s⁻¹
Kd (recombinant rat TL1A [6]): ~1510 nM
binding result (bovine serum albumin): no binding (tested: 1e-6 M)
binding result (human serum albumin): no binding (tested: 1e-6 M)

B3: [xTL1A]-0349 bivalent antibody (antibody, human IgG1, kappa, V domains shown)
VH: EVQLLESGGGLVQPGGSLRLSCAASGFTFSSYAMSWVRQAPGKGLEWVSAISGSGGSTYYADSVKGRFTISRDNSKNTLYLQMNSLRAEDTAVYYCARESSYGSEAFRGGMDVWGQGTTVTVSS
VL: DIQMTQSPSSLSASVGDRVTITCRASQSVSSYLAWYQQKPGKAPKLLIYDASNRATGVPSRFSGSGSGTDFTLTISSLQPEDFATYYCQQRSNWPWTFGQGTKVEIKR
notes: disabled (null) bivalent IgG1/kappa
binding result (recombinant human TL1A [7]): no binding (tested: 1 µM)
